Source: PMC6321010, “Interaction of the GTPase Elongation Factor Like-1 with the Shwachman-Diamond Syndrome Protein and Its Missense Mutations” (International Journal of Molecular Sciences, 2018)
Positions count from the first letter of the chain named.

Assays:
Assay in all cases: fluorescence polarisation; fluorescence anisotropy; 2 µL additions of 40-90 µM human EFL1 titrated into 300 µL of 0.1 µM Lumio Green-labelled human SBDS-FlAsH construct; 25 °C; 50 mM Tris-HCl pH 8, 300 mM NaCl, 5 mM β-mercaptoethanol; fitted to a single-site or a two different binding sites model
Details in all cases: both partners purified
[1] = biological target: T1, human SBDS R19Q with C-terminal FlAsH tag, labelled with Lumio Green (human, UniProt Q9Y3A5 1-250, R19Q, Lumio Green dye (4',5'-bis(1,3,2-dithioarsolan-2-yl) fluorescein) on the C-terminal FlAsH tag)
T1 construct: human SBDS, SDS disease surface missense variant R19Q (domain 1), in the three-domain protein; Missense variant found in patients; source: E. coli C41 (pRSET plasmid), purified by conventional chromatographic techniques; not shown: FlAsH tag (Cys-Cys-Pro-Gly-Cys-Cys), C-terminal, kept
T1 sequence (looked up): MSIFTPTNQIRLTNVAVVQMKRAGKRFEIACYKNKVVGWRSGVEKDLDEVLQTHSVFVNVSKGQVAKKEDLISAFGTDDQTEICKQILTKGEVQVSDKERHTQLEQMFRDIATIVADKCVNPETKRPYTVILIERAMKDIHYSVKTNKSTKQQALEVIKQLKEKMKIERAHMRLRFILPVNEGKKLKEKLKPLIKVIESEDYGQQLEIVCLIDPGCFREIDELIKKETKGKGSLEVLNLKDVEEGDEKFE

[2] = biological target: T2, human SBDS wild type with C-terminal FlAsH tag, labelled with Lumio Green (human, UniProt Q9Y3A5 1-250, Lumio Green dye (4',5'-bis(1,3,2-dithioarsolan-2-yl) fluorescein) on the C-terminal FlAsH tag)
T2 construct: human SBDS, wild type, called the full-length protein; also called SBDS-FlAsH; Shwachman-Bodian-Diamond Syndrome protein; source: E. coli C41 (pRSET plasmid), purified by conventional chromatographic techniques; not shown: FlAsH tag (Cys-Cys-Pro-Gly-Cys-Cys), C-terminal, kept
T2 sequence (looked up): T1 sequence (looked up) with Q19R

[3] = biological target: T3, human SBDS K67E with C-terminal FlAsH tag, labelled with Lumio Green (human, UniProt Q9Y3A5 1-250, K67E, Lumio Green dye (4',5'-bis(1,3,2-dithioarsolan-2-yl) fluorescein) on the C-terminal FlAsH tag)
T3 construct: human SBDS, SDS disease surface missense variant K67E (domain 1), in the three-domain protein; Missense variant found in patients; source: E. coli C41 (pRSET plasmid), purified by conventional chromatographic techniques; not shown: FlAsH tag (Cys-Cys-Pro-Gly-Cys-Cys), C-terminal, kept
T3 sequence (looked up): T1 sequence (looked up) with Q19R, K67E

[4] = biological target: T4, human SBDS R126T with C-terminal FlAsH tag, labelled with Lumio Green (human, UniProt Q9Y3A5 1-250, R126T, Lumio Green dye (4',5'-bis(1,3,2-dithioarsolan-2-yl) fluorescein) on the C-terminal FlAsH tag)
T4 construct: human SBDS, SDS disease surface missense variant R126T (domain 2), in the three-domain protein; Missense variant found in patients; source: E. coli C41 (pRSET plasmid), purified by conventional chromatographic techniques; not shown: FlAsH tag (Cys-Cys-Pro-Gly-Cys-Cys), C-terminal, kept
T4 sequence (looked up): T1 sequence (looked up) with Q19R, R126T

Kd1 (first binding site, two different binding sites model) [1]: 4.2 ± 0.5 µM
Kd2 (second binding site, two different binding sites model) [1]: 5.2 ± 0.3 µM
Kd1 (first binding site, two different binding sites model) [2]: 5.4 ± 1 µM
Kd2 (second binding site, two different binding sites model) [2]: 0.4 ± 0.04 µM
Kd1 (first binding site, two different binding sites model) [3]: 7.2 ± 2 µM
Kd2 (second binding site, two different binding sites model) [3]: 3 ± 1 µM
Kd1 (first binding site, two different binding sites model) [4]: 9.3 ± 1.7 µM
Kd2 (second binding site, two different binding sites model) [4]: 2.5 ± 0.2 µM
B1: human Elongation Factor Like-1 (EFL1) (enzyme)
chain: MVLNSLDKMIQLQKNTANIRNICVLAHVDHGKTTLADCLISSNGIISSRLAGKLRYMDSREDEQIRGITMKSSAISLHYATGNEEYLINLIDSPGHVDFSSEVSTAVRICDGCIIVVDAVEGVCPQTQAVLRQAWLENIRPVLVINKIDRLIVELKFTPQEAYSHLKNILEQINALTGTLFTSKVLEERAERETESQVNPNSEQGEQVYDWSTGLEDTDDSHLYFSPEQGNVVFTSAIDGWGFGIEHFARIYSQKIGIKKEVLMKTLWGDYYINMKAKKIMKGDQAKGKKPLFVQLILENIWSLYDAVLKKDKDKIDKIVTSLGLKIGAREARHSDPKVQINAICSQWLPISHAVLAMVCQKLPSPLDITAERVERLMCTGSQTFDSFPPETQALKAAFMKCGSEDTAPVIIFVSKMFAVDAKALPQNKPRPLTQEEIAQRRERARQRHAEKLAAAQGQAPLEPTQDGSAIETCPKGEEPRGDEQQVESMTPKPVLQEENNQESFIAFARVFSGVARRGKKIFVLGPKYSPLEFLRRVPLGFSAPPDGLPQVPHMAYCALENLYLLMGRELEYLEEVPPGNVLGIGGLQDFVLKSATLCSLPSCPPFIPLNFEATPIVRVAVEPKHPSEMPQLVKGMKLLNQADPCVQILIQETGEHVLVTAGEVHLQRCLDDLKERFAKIHISVSEPIIPFRETITKPPKVDMVNEEIGKQQKVAVIHQMKEDQSKIPEGIQVDSDGLITITTPNKLATLSVRAMPLPEEVTQILEENSDLIRSMEQLTSSLNEGENTHMIHQKTQEKIWEFKGKLEQHLTGRRWRNIVDQIWSFGPRKCGPNILVNKSEDFQNSVWTGPADKASKEASRYRDLGNSIVSGFQLATLSGPMCEEPLMGVCFVLEKWDLSKFEEQGASDLAKEGQEENETCSGGNENQELQDGCSEAFEKRTSQKGESPLTDCYGPFSGQLIATMKEACRYALQVKPQRLMAAMYTCDIMATGDVLGRVYAVLSKREGRVLQEEMKEGTDMFIIKAVLPVAESFGFADEIRKRTSGLASPQLVFSHWEIIPSDPFWVPTTEEEYLHFGEKADSENQARKYMNAVRKRKGLYVEEKIVEHAEKQRTLSKNK
notes: human EFL1, GTPase, said to comprise 1120 residues; the expressed protein is fused to a TEV recognition site and a hexahistidine tag at the C-terminus; also called human EFL1; GTPase Elongation Factor Like-1; source: S. cerevisiae BCY123 (pRS426 backbone, GAL1/10 promoter), purified
